Data taken from patent publication US7807783 (REGENTS OF THE UNIVERSITY OF MICHIGAN, dated 2010).

B3: GAL4 activation domain-FADD fusion protein (GAL4ad-FADD) (other, not shown: large carriers)
chain: MDPFLVLLHSVSSSLSSSELTELKFLCLGRVGKRKLERVQSGLDLFSMLLEQNDLEPGHTELLRELLASLRRHDLLRRVDDFEAGAAAGAAPGEEDLCAAFNVICDNVGKDWRRLARQLKVSDTKIDSIEDRYPRNLTERVRESLRIWKNTEKENATVAHLVGALRSCQMNLVADLVQEVQQARDLQNRSGAMSPMSWNSDASTSEAS
B4: GAL4 DNA binding domain fusion of the cytoplasmic domain of CD28 (receptor, UniProt P04386 1-147, looked up)
chain: MKLLSSIEQACDICRLKKLKCSKEKPKCAKCLKNNWECRYSPKTKRSPLTRAHLTEVESRLERLEQLFLLIFPREDLDMILKMDSLQDIKALLTGLFVQDNVNKDAVTDRLASVETDMPLTLRQHRISATSSSEESSNKGQRQLTVSRSKRSRLLHSDYMNMTPRRPGPTRKHYQPYAPPRDFAAYRS
notes: also called CD28 (yeast bait)

Legend:
[1] = target: B4; assay: yeast two-hybrid
Text: (§1) The following yeast two-hybrid system was used and constructed as follows. The cytoplasmic domains of Fas, Fas-FD8, TNRF-1, Δ-TNFR-1, CD40, and CD28 were obtained by PCR and cloned in-frame, as confirmed by sequencing, into the GAL4 DNA binding domain (GAL4bd) vector pAS1CYH2. Full-length A20 and B94 were similarly cloned into the bait vector. GAL4bd-Fas was cotransformed with a prey plasmid containing a human B-cell cDNA expression library fused to the GAL4 activation domain (GAL4ad) in the pACT plasmid. A more detailed account of the plasmids used in the procedure for the yeast two-hybrid system can be found in Hu et al. (1994) *J. Biol. Chem.* 269:30069-30072.
(§2) The yeast two-hybrid system was used to screen for proteins that interact with the cytoplasmic domain of Fas. An expression vector was constructed by fusing the GAL4 DNA-binding domain to the cytoplasmic tail of the human Fas antigen (GAL4bd-Fas). This bait plasmid was cotransformed in yeast with a prey plasmid containing a human B-cell cDNA expression library fused to the GAL4-activation domain. Seventeen positive clones were obtained from 2 ×10^6 transformants screened. To determine the specificity of interaction, plasmids containing the activation domain fusion proteins were recovered from the putative positive clones and cotransformed with GAL4bd-Fas and control heterologous baits.

[2] = target: GAL4 DNA-binding domain fused to the cytoplasmic tail of the human Fas antigen (GAL4bd-Fas) (human, UniProt P04386 1-147; P25445 191-335, limits assumed); assay: yeast two-hybrid
Text: as §1, §2

[3] = target: T1, GAL4 DNA binding domain fusion of the cytoplasmic domain of CD40 (UniProt P04386 1-147; P25942 216-277, limits assumed); assay: yeast two-hybrid
T1 construct: also called CD40 (yeast bait)
Text: as §1, §2

[4] = target: T2, GAL4 DNA binding domain fusion of full-length B94 (UniProt P04386 1-147; Q03169 1-654); assay: yeast two-hybrid
T2 construct: also called B94 (yeast bait)
Text: as §1, §2

[5] = target: T3, GAL4 DNA binding domain fusion of full-length A20 (UniProt P04386 1-147; P21580 1-790); assay: yeast two-hybrid
T3 construct: also called A20 (yeast bait)
Text: as §1, §2

[6] = target: T1, GAL4 DNA binding domain fusion of the …; assay: yeast two-hybrid, β-galactosidase filter assay
Text: as §1, §2

[7] = target: T2, GAL4 DNA binding domain fusion of …; assay: yeast two-hybrid, β-galactosidase filter assay
Text: as §1, §2

[8] = target: T3, GAL4 DNA binding domain fusion of …; assay: yeast two-hybrid, β-galactosidase filter assay
Text: as §1, §2

[9] = target: B3; assay: yeast two-hybrid, β-galactosidase filter assay
Text: as §1, §2

GST [10] = target: T4, GST (UniProt P08515 1-218 = GST); assay: GST pull-down of 35S-labeled in vitro translated FADD, SDS-PAGE and autoradiography
T4 construct: Control protein on glutathione beads
T4 sequence (P08515 whole entry): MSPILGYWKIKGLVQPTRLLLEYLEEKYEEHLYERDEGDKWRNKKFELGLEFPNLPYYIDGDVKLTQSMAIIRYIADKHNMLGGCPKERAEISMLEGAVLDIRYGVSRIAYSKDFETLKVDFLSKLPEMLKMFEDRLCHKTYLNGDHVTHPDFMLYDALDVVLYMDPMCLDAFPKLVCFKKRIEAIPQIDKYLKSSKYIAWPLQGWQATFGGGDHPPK

GST [11] = target: T4, GST; assay: GST pull-down from lysates of transfected 293T cells
Method: (§3) Detergent lysates were prepared and incubated with various GST fusion proteins immobilized on glutathione-Sepharose beads. The samples were analyzed by SDS-PAGE and autoradiography (upper panel). The respective GST fusion proteins are shown as in FIG. 4B (middle panel).

[12] = target: T5, GST-Fas (GST fusion protein containing the cytoplasmic domain of Fas) (UniProt P25445 191-335); assay: as above
T5 construct: domain: cytoplasmic domain; Made in E. coli BL21(DE3)pLysS and immobilized on glutathione beads; not shown: glutathione S-transferase of vector pGSTag
T5 sequence (looked up): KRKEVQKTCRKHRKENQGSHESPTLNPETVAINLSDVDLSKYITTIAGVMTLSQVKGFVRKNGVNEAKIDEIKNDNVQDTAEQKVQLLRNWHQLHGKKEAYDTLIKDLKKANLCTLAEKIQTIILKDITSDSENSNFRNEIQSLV
Method: as §3

[13] = target: T6, cytoplasmic domain of Fas (UniProt P25445 191-335, limits assumed); assay: not described
T6 construct: domain: cytoplasmic domain
T6 sequence (looked up): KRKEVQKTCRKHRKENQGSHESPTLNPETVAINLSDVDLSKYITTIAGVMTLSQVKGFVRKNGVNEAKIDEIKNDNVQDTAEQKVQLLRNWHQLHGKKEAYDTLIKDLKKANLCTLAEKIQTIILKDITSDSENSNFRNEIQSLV

B1: clone 8 (GAL4 activation domain fusion isolated in the yeast two-hybrid screen) (other, not shown: large carriers)
chain: SGLDLFSMLLEQNDLEPGHTELLRELLASLRRHDLLRRVDDFEAGAAAGAAPGEEDLCAAFNVICDNVGKDWRRLARQLKVSDTKIDSIEDRYPRNLTERVRESLRIWKNTEKENATVAHLVGALRSCQMNLVADLVQEVQQARDLQNRSGAMSPMSWNSDASTSEAS
- binding result [1]: no binding
- binding result [2]: binds
- binding result [3]: no binding
- binding result [4]: no binding
- binding result [5]: no binding

B2: clone 15 (GAL4 activation domain fusion isolated in the yeast two-hybrid screen) (other, not shown: large carriers)
chain: KFLCLGRVGKRKLERVQSGLDLFSMLLEQNDLEPGHTELLRELLASLRRHDLLRRVDDFEAGAAAGAAPGEEDLCAAFNVICDNVGKDWRRLARQLKVSDTKIDSIEDRYPRNLTERVRESLRIWKNTEKENATVAHLVGALRSCQMNLVADLVQEVQQARDLQNRSGAMSPMSWNSDASTSEAS
notes: also called GAL4ad-FADD (clone 15)
- binding result [1]: no binding
- binding result [3]: no binding
- binding result [4]: no binding
- binding result [5]: no binding

Binder: B3
- binding result [6]: no binding
- binding result [7]: no binding
- binding result [8]: no binding

Binder: B4
- binding result [9]: no binding

B5: HA-epitope tagged FADD (HA-FADD) (other)
chain: YPYDVPDYAMDPFLVLLHSVSSSLSSSELTELKFLCLGRVGKRKLERVQSGLDLFSMLLEQNDLEPGHTELLRELLASLRRHDLLRRVDDFEAGAAAGAAPGEEDLCAAFNVICDNVGKDWRRLARQLKVSDTKIDSIEDRYPRNLTERVRESLRIWKNTEKENATVAHLVGALRSCQMNLVADLVQEVQQARDLQNRSGAMSPMSWNSDASTSEAS
modifications: 35S-methionine/cysteine metabolic or in vitro translation label
notes: also called in vitro translated FADD; 35S-labeled FADD
- binding result (GST [10]): no binding

B6: AU1-epitope tagged FADD (AU1-FADD) (other)
chain: DTYRYIMDPFLVLLHSVSSSLSSSELTELKFLCLGRVGKRKLERVQSGLDLFSMLLEQNDLEPGHTELLRELLASLRRHDLLRRVDDFEAGAAAGAAPGEEDLCAAFNVICDNVGKDWRRLARQLKVSDTKIDSIEDRYPRNLTERVRESLRIWKNTEKENATVAHLVGALRSCQMNLVADLVQEVQQARDLQNRSGAMSPMSWNSDASTSEAS
modifications: 35S-methionine/cysteine metabolic label
notes: the tag is placed N-terminal by the name only
- binding result (GST [11]): no binding

B7: AU1-FADDmt (other)
chain: DTYRYIMDPFLVLLHSVSSSLSSSELTELKFLCLGRVGKRKLERVQSGLDLFSMLLEQNDLEPGHTELLRELLASLRRHDLLRRVDDFEAGAAAGAAPGEEDLCAAFNVICDNVGKDWRRLARQLKNSDTKIDSIEDRYPRNLTERVRESLRIWKNTEKENATVAHLVGALRSCQMNLVADLVQEVQQARDLQNRSGAMSPMSWNSDASTSEAS
modifications: 35S-methionine/cysteine metabolic label
notes: also called point mutant of FADD
- binding result (GST [11]): no binding
- binding result [12]: no binding

B8: N-FADD (other)
chain: DTYRYIMDPFLVLLHSVSSSLSSSELTELKFLCLGRVGKRKLERVQSGLDLFSMLLEQNDLEPGHTELLRELLASLRRHDLLRRVDDFEAGAAAGAAPGEEDLCAAFNVICDNVGKDWRRLAR
notes: the AU1-tagged form is the one made for the cell death assays; also called AU1-N-FADD
- binding result [13]: no binding
